Reference: PMC4658667

Target: CdiI^YPIII immunity protein from Yersinia pseudotuberculosis YPIII, His6-tagged (Yersinia pseudotuberculosis YPIII)
Assay: BLI

Question: Which Kd does the source give for “CdiA-CT^YPIII, C-terminal toxin domain of CdiA from Yersinia pseudotuberculosis YPIII (domain or fragment)” here?
Answer: 16 nM
